In the supplement of paper PMC10065799, “High-throughput profiling of sequence recognition by tyrosine kinases and SH2 domains using bacterial peptide display” (eLife, 2023):

Columns and labels:
[1] = tested on: AncSZ; assay: phosphorylation enrichment, bacterial display (enrichment ratio); higher = better substrate or ligand; peptides without Tyr show the background
[2] = target: EPHB1 (UniProt P54762); assay: as above
[3] = target: EPHB2 (UniProt P29323); assay: as above
[4] = target: FGFR1 (UniProt P11362); assay: as above
Chain of FGFR1 (P11362 whole entry, looked up): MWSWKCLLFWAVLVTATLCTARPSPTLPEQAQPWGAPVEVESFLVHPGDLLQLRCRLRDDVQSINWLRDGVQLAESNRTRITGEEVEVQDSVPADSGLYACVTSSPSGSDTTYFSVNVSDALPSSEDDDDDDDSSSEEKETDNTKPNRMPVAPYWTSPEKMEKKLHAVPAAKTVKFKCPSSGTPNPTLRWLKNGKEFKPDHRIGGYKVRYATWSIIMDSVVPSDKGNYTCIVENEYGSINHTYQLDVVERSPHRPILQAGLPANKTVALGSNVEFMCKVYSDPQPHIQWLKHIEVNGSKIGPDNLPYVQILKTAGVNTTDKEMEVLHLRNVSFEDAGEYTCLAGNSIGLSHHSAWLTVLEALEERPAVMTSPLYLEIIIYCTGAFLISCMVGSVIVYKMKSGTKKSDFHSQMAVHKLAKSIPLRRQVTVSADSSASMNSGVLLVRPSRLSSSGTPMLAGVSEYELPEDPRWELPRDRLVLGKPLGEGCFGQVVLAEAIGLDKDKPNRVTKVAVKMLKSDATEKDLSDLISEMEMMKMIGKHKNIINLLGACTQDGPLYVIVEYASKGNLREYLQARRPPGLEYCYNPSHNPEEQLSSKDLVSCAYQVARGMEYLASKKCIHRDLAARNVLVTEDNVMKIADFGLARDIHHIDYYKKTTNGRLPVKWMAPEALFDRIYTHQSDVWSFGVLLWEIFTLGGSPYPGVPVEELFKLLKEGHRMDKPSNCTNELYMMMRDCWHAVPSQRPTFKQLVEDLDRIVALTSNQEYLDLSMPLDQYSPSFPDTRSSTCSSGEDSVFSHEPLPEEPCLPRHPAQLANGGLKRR

[5] = target: FGFR3 (UniProt P22607); assay: as above
Chain of FGFR3 (P22607 whole entry, looked up): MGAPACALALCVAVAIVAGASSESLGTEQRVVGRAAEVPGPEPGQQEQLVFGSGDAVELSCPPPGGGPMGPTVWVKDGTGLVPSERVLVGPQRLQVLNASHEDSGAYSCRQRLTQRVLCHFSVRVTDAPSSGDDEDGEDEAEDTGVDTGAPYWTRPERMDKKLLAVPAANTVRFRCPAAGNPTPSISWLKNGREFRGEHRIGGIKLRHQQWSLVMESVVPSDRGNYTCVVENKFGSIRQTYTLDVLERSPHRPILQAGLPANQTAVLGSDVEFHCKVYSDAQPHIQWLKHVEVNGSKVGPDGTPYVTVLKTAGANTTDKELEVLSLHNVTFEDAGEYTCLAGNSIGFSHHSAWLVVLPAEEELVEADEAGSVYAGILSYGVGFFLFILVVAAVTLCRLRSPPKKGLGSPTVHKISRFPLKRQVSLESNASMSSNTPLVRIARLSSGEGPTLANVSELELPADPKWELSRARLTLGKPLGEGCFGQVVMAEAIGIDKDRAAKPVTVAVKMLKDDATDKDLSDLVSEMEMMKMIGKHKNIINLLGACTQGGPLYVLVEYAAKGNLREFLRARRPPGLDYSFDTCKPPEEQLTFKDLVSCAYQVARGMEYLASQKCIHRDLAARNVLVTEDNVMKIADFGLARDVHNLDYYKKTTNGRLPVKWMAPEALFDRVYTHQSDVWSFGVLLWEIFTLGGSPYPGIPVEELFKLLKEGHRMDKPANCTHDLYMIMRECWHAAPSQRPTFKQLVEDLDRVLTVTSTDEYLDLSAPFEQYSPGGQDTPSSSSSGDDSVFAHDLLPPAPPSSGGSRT

[6] = tested on: Fer (mouse); assay: as above
[7] = target: Fes (UniProt P07332); assay: as above
Chain of Fes (P07332 whole entry, looked up): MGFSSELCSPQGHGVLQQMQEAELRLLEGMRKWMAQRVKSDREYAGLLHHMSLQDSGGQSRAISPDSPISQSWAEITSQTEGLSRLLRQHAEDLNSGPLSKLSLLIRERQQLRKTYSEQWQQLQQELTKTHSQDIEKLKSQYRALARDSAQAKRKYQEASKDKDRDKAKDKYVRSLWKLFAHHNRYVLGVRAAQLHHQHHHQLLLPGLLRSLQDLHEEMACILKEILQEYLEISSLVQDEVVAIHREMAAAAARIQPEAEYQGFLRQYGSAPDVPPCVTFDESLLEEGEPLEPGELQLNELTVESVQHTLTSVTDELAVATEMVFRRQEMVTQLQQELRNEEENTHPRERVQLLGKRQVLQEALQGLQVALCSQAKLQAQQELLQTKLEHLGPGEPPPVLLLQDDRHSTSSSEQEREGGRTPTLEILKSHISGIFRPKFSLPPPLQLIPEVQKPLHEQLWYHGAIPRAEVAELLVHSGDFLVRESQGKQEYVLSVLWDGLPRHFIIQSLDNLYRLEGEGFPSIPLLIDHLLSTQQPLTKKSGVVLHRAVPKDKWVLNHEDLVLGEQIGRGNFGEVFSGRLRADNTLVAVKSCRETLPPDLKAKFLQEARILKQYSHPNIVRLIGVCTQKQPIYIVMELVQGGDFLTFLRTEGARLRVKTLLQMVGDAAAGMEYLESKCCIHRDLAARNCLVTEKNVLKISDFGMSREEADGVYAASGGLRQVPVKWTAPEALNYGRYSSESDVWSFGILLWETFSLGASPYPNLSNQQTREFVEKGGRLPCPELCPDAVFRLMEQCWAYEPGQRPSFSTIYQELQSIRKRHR

[8] = target: Fyn (UniProt P06241); assay: as above
Chain of Fyn (P06241 whole entry, looked up): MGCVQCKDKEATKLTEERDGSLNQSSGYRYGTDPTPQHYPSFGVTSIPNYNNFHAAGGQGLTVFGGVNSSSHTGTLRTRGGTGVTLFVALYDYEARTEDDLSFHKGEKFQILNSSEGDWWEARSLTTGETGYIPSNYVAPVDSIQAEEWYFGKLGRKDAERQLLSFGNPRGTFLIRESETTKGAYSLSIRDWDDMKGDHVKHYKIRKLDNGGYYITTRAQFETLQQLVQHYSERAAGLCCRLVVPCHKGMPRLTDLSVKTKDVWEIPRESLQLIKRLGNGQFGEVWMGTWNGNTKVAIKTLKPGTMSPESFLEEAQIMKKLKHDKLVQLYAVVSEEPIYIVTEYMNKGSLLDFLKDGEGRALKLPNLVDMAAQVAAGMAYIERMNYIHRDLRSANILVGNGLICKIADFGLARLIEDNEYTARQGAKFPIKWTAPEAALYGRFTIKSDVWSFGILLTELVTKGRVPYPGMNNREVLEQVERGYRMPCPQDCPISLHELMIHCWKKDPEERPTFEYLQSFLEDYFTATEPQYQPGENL

[9] = target: Hck (UniProt P08631); assay: as above
[10] = target: Jak2 (UniProt O60674); assay: as above
[11] = target: MERTK (UniProt Q12866); assay: as above
[12] = tested on: c-Abl (mouse); assay: as above
[13] = tested on: c-Src; assay: as above
[14] = target: Grb2 SH2 (UniProt P62993); assay: SH2 binding enrichment of the phosphorylated peptide, bacterial display (enrichment ratio); higher = better substrate or ligand; peptides without Tyr show the background
[15] = target: SHP2-C SH2; assay: as above
[16] = target: c-Src SH2; assay: as above
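Throughout, for SH2 binding enrichment of the phosphorylated peptide, bacterial display: peptide library displayed on the E. coli surface as eCPX fusions, selected cells deep-sequenced, score is each peptide's frequency after selection divided by its frequency in the input.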
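Throughout, for phosphorylation enrichment, bacterial display: 11-residue human phosphosite peptides and single-mutation variants displayed on the E. coli surface, counted by deep sequencing, each peptide's frequency after selection divided by its frequency in the unselected input library; frequency after pTyr selection over input frequency; kinase dosed for 20-30% of maximal phosphorylation in three min.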

Chain of EPHB1 (P54762 whole entry, looked up): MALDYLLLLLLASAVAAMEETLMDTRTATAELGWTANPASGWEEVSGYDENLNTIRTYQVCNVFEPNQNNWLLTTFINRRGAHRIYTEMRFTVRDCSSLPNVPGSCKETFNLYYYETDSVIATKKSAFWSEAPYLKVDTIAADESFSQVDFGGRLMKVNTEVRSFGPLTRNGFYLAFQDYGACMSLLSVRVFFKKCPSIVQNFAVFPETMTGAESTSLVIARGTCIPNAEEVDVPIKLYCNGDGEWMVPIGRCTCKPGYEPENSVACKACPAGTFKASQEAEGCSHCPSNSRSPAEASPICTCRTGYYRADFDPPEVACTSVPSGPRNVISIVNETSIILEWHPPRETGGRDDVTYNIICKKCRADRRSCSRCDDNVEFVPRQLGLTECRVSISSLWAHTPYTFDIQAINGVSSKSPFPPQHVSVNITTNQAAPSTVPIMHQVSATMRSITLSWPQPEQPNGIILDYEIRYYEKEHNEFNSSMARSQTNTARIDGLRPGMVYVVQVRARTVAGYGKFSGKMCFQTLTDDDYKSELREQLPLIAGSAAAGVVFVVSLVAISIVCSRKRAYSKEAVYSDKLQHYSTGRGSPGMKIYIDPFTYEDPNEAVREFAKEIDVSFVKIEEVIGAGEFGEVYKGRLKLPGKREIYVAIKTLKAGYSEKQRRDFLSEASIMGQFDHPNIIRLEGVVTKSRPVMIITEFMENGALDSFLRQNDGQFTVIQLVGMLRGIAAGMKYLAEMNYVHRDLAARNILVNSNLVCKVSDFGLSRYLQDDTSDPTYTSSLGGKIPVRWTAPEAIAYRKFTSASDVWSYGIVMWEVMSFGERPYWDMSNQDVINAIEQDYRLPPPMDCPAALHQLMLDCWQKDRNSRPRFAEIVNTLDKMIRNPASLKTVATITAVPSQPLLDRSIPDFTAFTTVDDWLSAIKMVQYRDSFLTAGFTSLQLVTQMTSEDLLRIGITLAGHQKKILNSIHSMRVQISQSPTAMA
Chain of EPHB2 (P29323 whole entry, looked up): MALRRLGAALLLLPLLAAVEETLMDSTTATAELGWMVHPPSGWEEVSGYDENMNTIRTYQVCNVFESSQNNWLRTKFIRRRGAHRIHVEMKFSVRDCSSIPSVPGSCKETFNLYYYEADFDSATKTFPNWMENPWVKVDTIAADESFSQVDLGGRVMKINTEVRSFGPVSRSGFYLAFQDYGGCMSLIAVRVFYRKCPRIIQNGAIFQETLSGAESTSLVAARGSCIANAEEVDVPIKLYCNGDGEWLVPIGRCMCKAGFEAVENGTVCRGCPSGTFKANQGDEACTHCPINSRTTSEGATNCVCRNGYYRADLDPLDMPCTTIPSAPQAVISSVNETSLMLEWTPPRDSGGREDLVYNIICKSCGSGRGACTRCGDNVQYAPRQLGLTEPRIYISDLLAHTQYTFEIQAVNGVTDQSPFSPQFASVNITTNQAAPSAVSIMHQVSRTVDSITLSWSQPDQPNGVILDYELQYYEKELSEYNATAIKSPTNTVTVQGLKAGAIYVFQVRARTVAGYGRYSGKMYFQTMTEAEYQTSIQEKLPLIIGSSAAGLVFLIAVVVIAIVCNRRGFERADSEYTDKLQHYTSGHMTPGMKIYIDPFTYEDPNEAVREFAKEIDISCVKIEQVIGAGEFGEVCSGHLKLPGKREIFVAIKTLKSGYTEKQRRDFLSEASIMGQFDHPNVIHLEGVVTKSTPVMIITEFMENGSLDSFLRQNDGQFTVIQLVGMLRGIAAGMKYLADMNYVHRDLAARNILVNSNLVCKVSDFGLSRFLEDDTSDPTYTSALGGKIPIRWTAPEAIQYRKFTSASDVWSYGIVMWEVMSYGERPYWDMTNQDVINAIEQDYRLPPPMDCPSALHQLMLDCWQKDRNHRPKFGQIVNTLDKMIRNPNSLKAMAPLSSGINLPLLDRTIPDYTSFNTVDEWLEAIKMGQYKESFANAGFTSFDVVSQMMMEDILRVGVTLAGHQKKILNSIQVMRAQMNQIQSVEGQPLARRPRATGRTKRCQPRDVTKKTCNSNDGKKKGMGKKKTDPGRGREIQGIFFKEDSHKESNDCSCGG

| Sequence | SH2 binding enrichment [14] | SH2 binding enrichment [15] | SH2 binding enrichment [16] | phosphorylation enrichment [1] | phosphorylation enrichment [2] | phosphorylation enrichment [3] | phosphorylation enrichment [4] | phosphorylation enrichment [5] | phosphorylation enrichment [6] | phosphorylation enrichment [7] | phosphorylation enrichment [8] | phosphorylation enrichment [9] | phosphorylation enrichment [10] | phosphorylation enrichment [11] | phosphorylation enrichment [12] | phosphorylation enrichment [13] |
| --- | --- | --- | --- | --- | --- | --- | --- | --- | --- | --- | --- | --- | --- | --- | --- | --- |
| FPAVGYHKPHI [IDS_Y225_L221P] | 0.823 | 0.826 | 0.91 | 0.638 | 0.393 | 0.467 | 0.412 | 0.565 | 0.436 | 0.601 | 0.472 | 0.394 | 0.625 | 0.374 | 0.602 | 0.41 |
| FPKARYRWLVL [APTX_Y214_H215R_YF] | 0.909 | 0.568 | 0.575 | 0.715 | 0.448 | 0.371 | 0.533 | 0.534 | 0.352 | 0.72 | 0.386 | 0.407 | 0.717 | 0.494 | 0.534 | 0.436 |
| FQLPFYNTVPS [BMPR1A_Y458_M460T_YF] | 0.911 | 0.816 | 5.8 | 0.748 | 0.526 | 0.45 | 0.414 | 0.699 | 0.642 | 0.828 | 0.465 | 0.687 | 0.704 | 0.569 | 0.625 | 0.565 |
| FRARAYGFRGP [CHGA_Y381] | 0.705 | 0.476 | 0.465 | 0.839 | 0.472 | 0.506 | 0.497 | 0.427 | 0.532 | 0.747 | 0.676 | 0.569 | 0.686 | 0.748 | 0.658 | 0.651 |
| FRARAYSFRGP [CHGA_Y381_G382S] | 0.597 | 0.363 | 0.573 | 0.697 | 0.48 | 0.419 | 0.538 | 0.534 | 0.456 | 0.591 | 0.418 | 0.455 | 0.628 | 0.601 | 0.573 | 0.507 |
| FRDALYKSMVD [PHEX_Y250_F252S_YF] | 0.795 | 0.735 | 0.516 | 0.792 | 0.608 | 0.614 | 0.497 | 0.642 | 0.488 | 0.97 | 0.419 | 0.476 | 0.897 | 0.484 | 0.643 | 0.365 |
| FRPPYYHRDCM [HGD_Y334_N337D] | 1.08 | 0.913 | 1.09 | 0.805 | 0.536 | 0.611 | 0.56 | 0.735 | 0.499 | 0.867 | 0.417 | 0.415 | 0.723 | 0.444 | 0.572 | 0.455 |
| FRQNVYIPGSN [PCDHGA1_Y895_YF] | 0.804 | 0.602 | 0.425 | 0.576 | 0.43 | 0.442 | 0.416 | 0.501 | 0.402 | 0.613 | 0.447 | 0.442 | 0.584 | 0.416 | 0.536 | 0.435 |

Continued, in another order:

| SH2 binding enrichment [14] | SH2 binding enrichment [15] | SH2 binding enrichment [16] | Sequence | phosphorylation enrichment [1] | phosphorylation enrichment [2] | phosphorylation enrichment [3] | phosphorylation enrichment [4] | phosphorylation enrichment [5] | phosphorylation enrichment [6] | phosphorylation enrichment [7] | phosphorylation enrichment [8] | phosphorylation enrichment [9] | phosphorylation enrichment [10] | phosphorylation enrichment [11] | phosphorylation enrichment [12] | phosphorylation enrichment [13] |
| --- | --- | --- | --- | --- | --- | --- | --- | --- | --- | --- | --- | --- | --- | --- | --- | --- |
| 0.644 | 0.746 | 0.374 | FPPTHYIRRVP [SLC4A11_Y820_YF] | 0.953 | 0.529 | 0.53 | 0.437 | 0.468 | 0.747 | 0.87 | 0.473 | 0.965 | 0.755 | 0.522 | 0.71 | 0.475 |
| 0.812 | 0.926 | 0.469 | FQEPVYSVAFS [TBL1X_Y509_H504Y_YF] | 4.02 | 18.1 | 24.6 | 3.68 | 3.49 | 16.6 | 3.7 | 11.8 | 10.2 | 0.925 | 11.7 | 27.4 | 7.54 |
| 1.01 | 6.08 | 1.79 | FQSKHYACIRQ [TIMP3_Y182_YF] | 0.692 | 0.541 | 0.478 | 0.42 | 0.512 | 0.472 | 0.829 | 0.375 | 0.392 | 0.823 | 0.503 | 0.659 | 0.425 |
| 0.869 | 0.691 | 1.08 | FSAGTYPRMEE [SYCN_Y108_L111M] | 0.863 | 0.453 | 0.467 | 1.12 | 0.547 | 0.417 | 0.65 | 0.361 | 0.322 | 0.575 | 0.365 | 0.501 | 0.407 |
| 0.731 | 0.401 | 0.449 | FSALDYKIFFF [WDPCP_Y210_L205F_YF] | 1.57 | 0.675 | 0.54 | 0.6 | 0.981 | 0.541 | 1.64 | 0.416 | 0.504 | 1.69 | 0.468 | 1.13 | 0.67 |
| 0.634 | 0.446 | 0.421 | FSDQVYRQRRK [TH_Y230] | 0.853 | 0.557 | 0.663 | 0.474 | 0.568 | 0.551 | 0.787 | 0.615 | 0.493 | 0.658 | 0.649 | 0.735 | 0.774 |
| 0.647 | 0.638 | 0.416 | FSNVLYRPRGA [TMIGD2_Y197_YF] | 0.695 | 0.415 | 0.526 | 0.388 | 0.43 | 0.479 | 0.845 | 0.437 | 0.41 | 0.478 | 0.418 | 0.611 | 0.477 |
